Experimental data: patent US20120149636A1

Assays:
[1] = target: human growth hormone receptor on IM-9 cells (human) (UniProt P10912); experiment: cell-based or functional assay
[2] = target: T1, full length rat GHR (L43R) on BAF3 cells (rat) (UniProt P16310); experiment: cell-based or functional assay
T1 sequence (looked up): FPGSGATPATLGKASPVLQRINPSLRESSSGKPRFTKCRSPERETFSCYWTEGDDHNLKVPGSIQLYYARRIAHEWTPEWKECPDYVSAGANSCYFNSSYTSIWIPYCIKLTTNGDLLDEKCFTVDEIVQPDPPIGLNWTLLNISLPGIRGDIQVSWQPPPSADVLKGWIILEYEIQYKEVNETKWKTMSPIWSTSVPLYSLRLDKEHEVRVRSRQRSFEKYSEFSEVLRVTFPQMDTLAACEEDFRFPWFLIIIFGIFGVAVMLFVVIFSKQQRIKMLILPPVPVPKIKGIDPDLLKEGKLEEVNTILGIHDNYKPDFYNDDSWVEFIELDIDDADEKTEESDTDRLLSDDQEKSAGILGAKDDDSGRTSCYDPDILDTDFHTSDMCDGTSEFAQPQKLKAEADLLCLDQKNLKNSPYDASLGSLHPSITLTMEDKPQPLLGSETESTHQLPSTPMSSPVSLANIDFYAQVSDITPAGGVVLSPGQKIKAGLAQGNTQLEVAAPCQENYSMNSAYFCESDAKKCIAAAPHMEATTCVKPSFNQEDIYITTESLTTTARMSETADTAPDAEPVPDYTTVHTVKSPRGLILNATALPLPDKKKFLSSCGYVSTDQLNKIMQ

Sequence of UniProt P10912 (P10912 19-638): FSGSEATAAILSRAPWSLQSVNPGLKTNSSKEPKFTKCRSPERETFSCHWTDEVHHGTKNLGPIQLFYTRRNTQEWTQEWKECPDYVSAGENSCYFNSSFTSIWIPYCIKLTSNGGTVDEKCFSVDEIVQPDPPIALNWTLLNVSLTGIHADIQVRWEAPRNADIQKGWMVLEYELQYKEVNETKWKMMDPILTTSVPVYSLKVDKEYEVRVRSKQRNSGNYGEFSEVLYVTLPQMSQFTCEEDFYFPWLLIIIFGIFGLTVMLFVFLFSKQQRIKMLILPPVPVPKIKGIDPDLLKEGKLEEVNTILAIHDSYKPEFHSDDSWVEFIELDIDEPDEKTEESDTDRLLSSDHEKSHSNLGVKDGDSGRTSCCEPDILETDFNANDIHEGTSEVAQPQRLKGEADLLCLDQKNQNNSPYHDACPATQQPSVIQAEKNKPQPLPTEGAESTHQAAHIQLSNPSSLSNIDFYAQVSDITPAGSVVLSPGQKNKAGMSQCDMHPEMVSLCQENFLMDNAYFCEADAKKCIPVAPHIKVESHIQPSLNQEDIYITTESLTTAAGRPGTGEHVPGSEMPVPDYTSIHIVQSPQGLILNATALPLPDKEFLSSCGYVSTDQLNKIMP

| pSTAT5 EC50 (IM-9), WHO hGH expressed as unity (relative, WHO hGH = 1 (head prints nM)) [1] | Proliferation EC50 (BrdU), WHO hGH expressed as unity (relative, WHO hGH = 1 (head prints nM)) [2] | Substance |
| --- | --- | --- |
| 23.8 | 4.6 | G131pAF-30KPEG (from UniProt P01241 27-217) (ligand) |
| 20.6 | 5.3 | K145pAF-30KPEG (from UniProt P01241 27-217) (ligand) |
| 12.3 | 6.6 | Y143pAF-30KPEG (from UniProt P01241 27-217) (ligand) |
| 5.3 |  | R134pAF-20KPEG (from UniProt P01241 27-217) (ligand) |
| 53.3 | 24 | Y35pAF-40KPEG (from UniProt P01241 27-217) (ligand) |
